From patent US11219221B2 (FarmHannong Co., Ltd., priority 2017, dated 2022) come the findings set out here.

Experiment [1] concerns CyPPO17. Description: Herbicide tolerance test of CyPPO17 wild type and variants in PPO-deficient E. coli BT3(ΔPPO). The experiment is classed as cell-based, Thermosynechococcus sp. NK55a. The settings on record: BT3(ΔPPO) transformants; for Herbicide tolerance, tiafenacil: 37° C., 16 to 20 hours. The method, then: The mutated CyPPO gene obtained from the Example 2 was transformed to BT3 (ΔPPO) strain which is deficient of PPO activity and cultured in LB media with PPO-inhibiting herbicide, thereby examining whether growth of transformed BT3 was not inhibited.
BT3 competent cells were transformed with the pET303-CyPPO16 and pET303-CyPPO17 plasmids and those with a mutation(s) constructed in Example 2 respectively, and were cultured in LB agar media containing carbenicillin (Gold Biotechnology, Co., Ltd.).
Single colony of E. coli transformed with each CyPPO gene was cultured in 3 ml of LB broth containing carbenicillin overnight, and then was subcultured until absorbance (0D600) reached 0.5 to 1. Then, it was diluted with LB broth to OD600=0.5. Again, the diluted solution was serially diluted 4 times by a factor of one tenth.
The LB agar media (LB 25 g/l, Bacto agar 15 g/l) containing carbenicillin (100 μg/ml) and 0 to 4,000 μM of various herbicides dissolved in DMSO was prepared. Next, 10 μl of each diluted solution was dropped on the plate and cultured at 37° C. under light (Tables 7 and 9, FIGS. 2 to 6, and 18 to 22) or dark (Tables 8 and 10, FIGS. 7 to 17, and 23 to 33) for 16 to 20 hours. Then, extent of tolerance was evaluated.
The extent of herbicide tolerance of the mutated genes was evaluated by comparing that of mutated genes with that of wild type. The relative tolerance was represented with “+” as a factor of 10 times. Evaluation result was listed in Tables 7 to10 and FIGS. 2 to 33:
In Tables 7 to 10, tolerance level was presented as of tolerance of wild type and of variants equivalent to that of wild type, and was done as ‘+’ per each 10 fold resistance until ‘+++++’ as maximal resistance. (Tolerance level was evaluated by relative growth level of variants to that of wild type in the media containing highest concentration of herbicide; ‘+’=1-9 fold higher tolerance, ‘++’=10-99 fold higher tolerance, ‘+++’=100-999 fold higher tolerance, ‘++++’=1,000-9,999 fold higher tolerance, ‘+++++’=more than 10,000 fold higher tolerance)
The concentrations of herbicides were written above the photographs of tolerance test. A dilution series (0D600=0.5, 0.05, 0.005, 0.0005, 0.00005) was made and spotted on LB agar plates supplemented with herbicides.

Experiment [2] deals with CyPPO17. Description: PPO enzyme activity of MBP-fused CyPPO17 wild type and variants. The experiment is classed as biochemical, Thermosynechococcus sp. NK55a. The settings on record: PPO enzyme activity relative to wild type; MBP-fused protein, 50 μM protoporphyrinogen IX, room temperature, 30 min. As to the method: Thus, PPO proteins of wild type and variants were expressed as fused to MBP and were used for experiments.
The following process for purification of PPO protein was performed in a 4° C. cold room. Amylose resin (NEB) was packed to 1.5×15 cm column (Bio-Rad, Econo Columns 1.5×15 cm, glass chromatography column, max. vol), and the obtained protein extracts were loaded to the column at a flow rate of 0.2 ml/min. The column was washed with 3 column volumes of buffer and the presence of protein in the washing solution was examined. When the protein was no longer detected, the washing procedure was terminated. Then, the MBP-PPO protein was eluted with approximately 2 column volumes of buffer containing 20 mM maltose. The protein concentration of each eluent was determined and the elution was stopped when the protein was no longer detected. Ten microliter of each fraction was investigated for protein quantification and SDS-PAGE analysis. The highly pure fractions of PPO protein variants were used for the enzyme assay.
Since protoporphyrinogen IX, a substrate of PPO protein, was not commercially available, it was chemically synthesized in the laboratory. Overall process was performed in dark under nitrogen stream. […] of protoporphyrin IX was dissolved in 20 ml of 20% (v/v) EtOH, and stirred under dark condition for 30 minutes. The obtained protoporphyrin IX solution was put into a 15 ml screw tube in an amount of 800 μl, and flushed with nitrogen gas for 5 minutes. To this, 1.5 g of sodium amalgam was added and vigorously shaken for 2 minutes. The lid was opened to exhaust hydrogen gas in the tube. Thereafter, the lid was closed and incubated for 3 minutes. The protoporphyrinogen IX solution was filtered using syringe and cellulose membrane filter. […] To determine the enzyme activity of PPO protein, a reaction mixture was prepared with the following composition (based on 10 ml): 50 mM Tris-Cl (pH 8.0); 50 mM NaCl; 0.04% (v/v) Tween 20; 40 mM glucose (0.072 g); 5 units glucose oxidase (16.6 mg); and 10 units catalase (1 μl).
Hundred and eighty microliters of a reaction mixture containing the purified PPO protein were placed in 96 well plates and 20 μl of […] were added. […] The reaction proceeded at room temperature for 30 min and the fluorescence of protoporphyrin IX was measured using Microplate reader (Sense, Hidex) (excitation: 405 nm; emission: 633 nm). […] To this, 2.7 N HCl was added, and the absorbance at 408 nm was measured. A standard curve was generated using standard protoporphyrin IX, and PPO activity was measured by calibration of protoporphyrin IX using the standard curve of protoporphyrin IX.
Activities of variants were presented relatively compared to that of wild type.

[3] abbreviates: one amino acid mutation, light, relative to wild type at highest concentration (50, 100 μM).
[4] abbreviates: one amino acid mutation, light, relative to wild type at highest concentration (5, 25 μM).

Changes are numbered by the printed parent chain. In names and notes the source's numbering stands.

B1: F359V: CyPPO17 variant (protein)
chain: MEVDVAIVGGGLSGLSVAWRLQQSAPQYSGVLLEASDRLGGNITTQGAEGFVWELGPNSFAPTPALLQLIAEVGLHSELIRGDRHLPRYIYWRGELYPLEPTRPLALATSNLLSPWGKVRAALGALGFVPPYLGSGDESVNSFFRRHLGQEVAERLVAPFVSGVYAGDPQQLSAAAAFRRIAQLEKLGGGLIAGALRLRRQQPPKPRPPAEVQMRPGELGSFKEGLAALPRAIAQQLKAPVHLQTPVEAITPEPNGGYLLRSGEQTWQARSVVLATPAYQTAALVAPFQPAIARVLAAIPYPTVACVVLAYPAGLGRSVRPGFGVLIPRGQGIRTLGTIWSSCLFPQRTPAGWQVFTSVIGGATDPDLASLREEAIVQQVQQDLTRLLDLPAAKARLLGMKVWRRAIPQYLVGYPQQWQQVTHALSQTPGLFLCSNYAEGVALGDRVEHGNRTAAAVAAYLSGGQS
modifications: Synthetic (Protoporphyrinogen IX oxidase (CyPPO17) of Thermosynechococcus sp. NK55a)
notes: CyPPO17 variant
With B1, in the experiment on CyPPO17 [1] (setting [3]), the “Herbicide tolerance, tiafenacil” value is on record as “++ (‘++’=10-99 fold higher tolerance)” and the “Herbicide tolerance, flumioxazin” value is listed as “++ (‘++’=10-99 fold higher tolerance)”. Besides, the “Herbicide tolerance, pyraflufen-ethyl” value in the experiment on CyPPO17 [1] (one amino acid mutation, light, relative to wild type at highest concentration (5, 10 μM)) was “++ (‘++’=10-99 fold higher tolerance)”. In the experiment with CyPPO17 [1] (setting [4]), the “Herbicide tolerance, acifluorfen” value is “+ (‘+’=1-9 fold higher tolerance)”; the “Herbicide tolerance, fomesafen” value was “+ (‘+’=1-9 fold higher tolerance)”; the “Herbicide tolerance, pentoxazone” value is given as “++ (‘++’=10-99 fold higher tolerance)”; the “Herbicide tolerance, pyraclonil” value is reported as “+ (‘+’=1-9 fold higher tolerance)”. Also, the “Herbicide tolerance, sulfentrazone” value with CyPPO17 [1] (setting [4]) is recorded as “++ (‘++’=10-99 fold higher tolerance)”. For the same molecule, the “Herbicide tolerance, saflufenacil” value in the experiment on CyPPO17 [1] (one amino acid mutation, light, relative to wild type at highest concentration (50, 200 μM)) was “+++ (‘+++’=100-999 fold higher tolerance)”. Further, the “Activity (%)” value with CyPPO17 [2] stood at 84%.

B2: F359T: CyPPO17 variant (protein)
chain: B1 chain with V359T
modifications: Synthetic (Protoporphyrinogen IX oxidase (CyPPO17) of Thermosynechococcus sp. NK55a)
notes: CyPPO17 variant
As for B2, in the experiment on CyPPO17 [2], the “Activity (%)” value is reported as 56%.

B3: L326T + F359M: CyPPO17 variant (protein)
chain: B1 chain with L326T, V359M
modifications: Synthetic (Protoporphyrinogen IX oxidase (CyPPO17) of Thermosynechococcus sp. NK55a)
notes: CyPPO17 variant
With B3, in the experiment with CyPPO17 [1] (two or more amino acid mutations, dark, relative to wild type at highest concentration (50, 200 μM)), the “Herbicide tolerance, tiafenacil” value is reported as “++++ (‘++++’=1,000-9,999 fold higher tolerance)”. In the experiment on CyPPO17 [1] (two or more amino acid mutations, dark, relative to wild type at highest concentration (100, 200 μM)), the “Herbicide tolerance, flumioxazin” value is given as “++++ (‘++++’=1,000-9,999 fold higher tolerance)”. In addition, in the experiment on CyPPO17 [1] (two or more amino acid mutations, dark, relative to wild type at highest concentration (200, 400 μM)), the “Herbicide tolerance, sulfentrazone” value is “+++ (‘+++’=100-999 fold higher tolerance)”. The “Activity (%)” value with CyPPO17 [2] is 74%.

B4: R88A: CyPPO17 variant (protein)
chain: B1 chain with R88A, V359F
modifications: Synthetic (Protoporphyrinogen IX oxidase (CyPPO17) of Thermosynechococcus sp. NK55a)
notes: CyPPO17 variant
Turning to B4, the “Activity (%)” value with CyPPO17 [2] was determined as 70%.

B5: F160A: CyPPO17 variant (protein)
chain: B1 chain with F160A, V359F
modifications: Synthetic (Protoporphyrinogen IX oxidase (CyPPO17) of Thermosynechococcus sp. NK55a)
notes: CyPPO17 variant
Turning to B5, in the experiment with CyPPO17 [2], the “Activity (%)” value is given as 63%.
